Among the targets are PRKCA (PKC alpha) (UniProt P17252 1-672, limits assumed); MST4 (UniProt Q9P289 1-416, limits assumed); PIM2 (UniProt Q9P1W9 1-311, limits assumed); MAP4K4 (HGK) (UniProt O95819 1-328, limits assumed); GRK5 (UniProt P34947 1-590, limits assumed); SRMS (Srm) (UniProt Q9H3Y6 1-488, limits assumed); CHEK2 (CHK2) (UniProt O96017 1-543, limits assumed); GRK4 (UniProt P32298 1-578, limits assumed).

What all share (test): cell-based or functional assay
Experiment [1] addresses STK25 (YSK1) Serine/threonine kinase 25 (STE20 homolog, yeast) (UniProt O00506 1-426, limits assumed).
Experiment [2] deals with T1, SGK (SGK1) Serum/glucocorticoid regulated kinase (human (printed as (h)), UniProt O00141 60-431, limits assumed).
T1 sequence (looked up): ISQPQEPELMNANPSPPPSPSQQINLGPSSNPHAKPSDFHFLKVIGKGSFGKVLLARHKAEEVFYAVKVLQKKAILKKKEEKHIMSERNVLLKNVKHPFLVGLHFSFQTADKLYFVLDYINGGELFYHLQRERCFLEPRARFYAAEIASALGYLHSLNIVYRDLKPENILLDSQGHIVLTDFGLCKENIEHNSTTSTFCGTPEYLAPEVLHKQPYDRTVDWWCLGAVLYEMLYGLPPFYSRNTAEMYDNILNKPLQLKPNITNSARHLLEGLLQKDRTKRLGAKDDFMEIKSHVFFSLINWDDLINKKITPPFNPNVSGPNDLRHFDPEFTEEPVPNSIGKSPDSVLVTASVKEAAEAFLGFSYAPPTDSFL

Experiment [3] addresses MAP2K2 (MEK2) Mitogen-activated protein kinase kinase 2 (UniProt P36507 1-400, limits assumed).
The next experiment deals with T2, PRKCI (PKC iota) (UniProt P41743 1-596, limits assumed).
T2 sequence (looked up): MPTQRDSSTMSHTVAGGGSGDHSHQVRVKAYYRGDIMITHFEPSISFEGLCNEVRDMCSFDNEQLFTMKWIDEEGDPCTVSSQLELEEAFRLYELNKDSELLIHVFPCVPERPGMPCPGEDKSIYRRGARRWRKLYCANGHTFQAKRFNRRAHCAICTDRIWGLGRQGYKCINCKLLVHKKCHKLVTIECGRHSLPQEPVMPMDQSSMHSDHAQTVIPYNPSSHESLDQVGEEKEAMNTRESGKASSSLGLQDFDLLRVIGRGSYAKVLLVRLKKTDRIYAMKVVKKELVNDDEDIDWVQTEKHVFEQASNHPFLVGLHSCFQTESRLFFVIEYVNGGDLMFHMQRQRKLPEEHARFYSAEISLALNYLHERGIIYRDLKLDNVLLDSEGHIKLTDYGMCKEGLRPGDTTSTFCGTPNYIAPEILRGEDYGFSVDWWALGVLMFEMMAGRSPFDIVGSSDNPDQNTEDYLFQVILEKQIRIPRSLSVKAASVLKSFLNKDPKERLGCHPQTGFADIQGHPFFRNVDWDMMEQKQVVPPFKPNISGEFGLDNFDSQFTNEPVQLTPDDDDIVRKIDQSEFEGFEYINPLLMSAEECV

Experiment [4] deals with T3, SGKL (SGK3) Serum/glucocorticoid regulated kinase family, member 3 (UniProt Q96BR1 1-496, limits assumed).
T3 sequence (looked up): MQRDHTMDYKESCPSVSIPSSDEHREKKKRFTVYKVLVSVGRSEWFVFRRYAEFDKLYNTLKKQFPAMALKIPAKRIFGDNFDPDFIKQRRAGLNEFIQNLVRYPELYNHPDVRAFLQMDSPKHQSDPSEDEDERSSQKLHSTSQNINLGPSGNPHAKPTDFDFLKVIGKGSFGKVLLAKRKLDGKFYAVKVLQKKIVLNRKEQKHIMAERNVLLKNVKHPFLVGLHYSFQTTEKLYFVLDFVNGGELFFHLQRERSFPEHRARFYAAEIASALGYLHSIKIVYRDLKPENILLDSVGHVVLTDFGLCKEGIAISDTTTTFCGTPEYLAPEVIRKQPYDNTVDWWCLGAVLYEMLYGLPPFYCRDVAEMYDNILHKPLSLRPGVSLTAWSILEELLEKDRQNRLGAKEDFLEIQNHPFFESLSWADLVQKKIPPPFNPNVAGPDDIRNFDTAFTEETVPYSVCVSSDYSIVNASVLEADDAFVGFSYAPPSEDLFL

For experiment [5], the target named is MAPK9 (JNK2) Mitogen-activated protein kinase 9 (UniProt P45984 1-424, limits assumed).
Experiment [6] concerns the target T4, NEK1 NIMA (never in mitosis gene a)-related kinase 1 (UniProt Q96PY6 1-505, limits assumed).
T4 sequence (looked up): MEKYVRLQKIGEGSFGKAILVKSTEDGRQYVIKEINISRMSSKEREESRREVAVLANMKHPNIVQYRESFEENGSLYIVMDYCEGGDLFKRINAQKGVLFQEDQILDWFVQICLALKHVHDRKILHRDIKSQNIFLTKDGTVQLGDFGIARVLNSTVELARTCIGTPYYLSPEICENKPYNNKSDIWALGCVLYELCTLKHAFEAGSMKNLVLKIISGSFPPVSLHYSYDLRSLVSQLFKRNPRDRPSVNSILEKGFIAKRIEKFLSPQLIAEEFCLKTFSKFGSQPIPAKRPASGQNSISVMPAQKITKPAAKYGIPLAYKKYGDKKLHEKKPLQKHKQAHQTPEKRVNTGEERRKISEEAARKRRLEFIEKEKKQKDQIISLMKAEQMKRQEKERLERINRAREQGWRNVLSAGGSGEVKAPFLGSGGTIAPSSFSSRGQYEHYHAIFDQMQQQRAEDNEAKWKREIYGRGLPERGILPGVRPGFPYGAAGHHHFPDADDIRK

Experiment [7] addresses MAP3K9 (MLK1) Mitogen-activated protein kinase kinase kinase 9 (UniProt P80192 132-413, limits assumed).
Also: test concentration or dose not given here.

Sequence of PIM2 (Q9P1W9 whole entry): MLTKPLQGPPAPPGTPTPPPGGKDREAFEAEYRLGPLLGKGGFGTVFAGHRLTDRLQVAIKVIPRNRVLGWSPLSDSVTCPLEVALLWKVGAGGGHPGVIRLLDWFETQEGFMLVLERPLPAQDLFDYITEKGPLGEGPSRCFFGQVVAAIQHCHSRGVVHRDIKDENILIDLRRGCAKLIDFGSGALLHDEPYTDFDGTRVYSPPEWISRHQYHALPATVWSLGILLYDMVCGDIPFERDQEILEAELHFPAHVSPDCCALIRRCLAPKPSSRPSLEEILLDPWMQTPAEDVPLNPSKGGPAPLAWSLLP
Sequence of GRK5 (P34947 whole entry): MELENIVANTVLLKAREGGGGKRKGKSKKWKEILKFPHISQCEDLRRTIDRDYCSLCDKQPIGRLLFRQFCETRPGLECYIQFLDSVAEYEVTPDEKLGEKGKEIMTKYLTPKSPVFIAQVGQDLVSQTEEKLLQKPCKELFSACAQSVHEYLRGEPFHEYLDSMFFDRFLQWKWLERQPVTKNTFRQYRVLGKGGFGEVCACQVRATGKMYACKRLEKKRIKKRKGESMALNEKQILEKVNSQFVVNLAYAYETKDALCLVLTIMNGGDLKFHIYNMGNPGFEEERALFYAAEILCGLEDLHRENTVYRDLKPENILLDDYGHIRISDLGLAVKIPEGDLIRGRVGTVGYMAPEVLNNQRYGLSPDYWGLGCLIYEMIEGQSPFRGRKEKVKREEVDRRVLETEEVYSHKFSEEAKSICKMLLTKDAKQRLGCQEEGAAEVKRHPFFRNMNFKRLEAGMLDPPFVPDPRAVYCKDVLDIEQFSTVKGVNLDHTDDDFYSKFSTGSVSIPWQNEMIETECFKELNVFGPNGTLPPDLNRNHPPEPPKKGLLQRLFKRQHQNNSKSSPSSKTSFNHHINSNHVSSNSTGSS
Sequence of MST4 (Q9P289 whole entry): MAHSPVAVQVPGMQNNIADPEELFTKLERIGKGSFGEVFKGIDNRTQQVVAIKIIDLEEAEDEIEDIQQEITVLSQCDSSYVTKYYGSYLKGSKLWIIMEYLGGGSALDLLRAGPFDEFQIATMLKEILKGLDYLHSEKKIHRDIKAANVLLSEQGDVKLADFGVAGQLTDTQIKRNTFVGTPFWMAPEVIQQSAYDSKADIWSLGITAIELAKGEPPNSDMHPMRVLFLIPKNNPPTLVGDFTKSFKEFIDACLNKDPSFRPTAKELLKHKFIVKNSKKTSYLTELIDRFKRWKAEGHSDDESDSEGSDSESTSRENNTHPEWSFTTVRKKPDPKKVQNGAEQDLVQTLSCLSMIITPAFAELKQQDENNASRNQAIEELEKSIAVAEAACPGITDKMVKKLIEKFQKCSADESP
Sequence of CHEK2 (CHK2) (O96017 whole entry): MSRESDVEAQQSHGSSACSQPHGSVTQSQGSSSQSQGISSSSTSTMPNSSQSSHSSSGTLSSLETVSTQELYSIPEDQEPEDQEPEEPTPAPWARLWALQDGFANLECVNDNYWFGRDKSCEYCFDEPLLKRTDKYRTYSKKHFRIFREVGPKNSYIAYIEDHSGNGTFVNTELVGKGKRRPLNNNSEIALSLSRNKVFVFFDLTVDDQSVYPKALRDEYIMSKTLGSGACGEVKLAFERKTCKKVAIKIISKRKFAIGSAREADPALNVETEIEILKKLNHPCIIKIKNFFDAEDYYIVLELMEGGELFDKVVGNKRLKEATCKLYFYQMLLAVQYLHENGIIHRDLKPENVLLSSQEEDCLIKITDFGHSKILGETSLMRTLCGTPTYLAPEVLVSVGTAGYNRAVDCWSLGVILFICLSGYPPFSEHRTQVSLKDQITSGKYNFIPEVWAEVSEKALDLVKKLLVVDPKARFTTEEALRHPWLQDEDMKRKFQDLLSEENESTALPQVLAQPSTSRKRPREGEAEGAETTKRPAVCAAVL
Sequence of STK25 (YSK1) Serine/threonine kinase 25 (STE20 homolog, yeast) (O00506 whole entry): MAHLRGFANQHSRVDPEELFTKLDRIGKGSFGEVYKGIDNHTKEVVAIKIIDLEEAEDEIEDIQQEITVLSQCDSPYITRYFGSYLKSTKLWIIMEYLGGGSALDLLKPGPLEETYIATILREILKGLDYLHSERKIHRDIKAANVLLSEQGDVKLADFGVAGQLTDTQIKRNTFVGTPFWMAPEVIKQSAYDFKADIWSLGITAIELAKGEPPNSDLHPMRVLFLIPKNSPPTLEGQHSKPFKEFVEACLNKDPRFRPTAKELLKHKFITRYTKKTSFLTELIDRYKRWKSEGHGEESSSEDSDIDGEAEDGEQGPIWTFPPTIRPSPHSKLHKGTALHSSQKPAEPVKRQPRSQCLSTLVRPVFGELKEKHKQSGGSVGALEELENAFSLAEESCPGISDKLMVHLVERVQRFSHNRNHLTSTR
Sequence of MAP3K9 (MLK1) Mitogen-activated protein kinase kinase kinase 9 (P80192 132-413 limits assumed): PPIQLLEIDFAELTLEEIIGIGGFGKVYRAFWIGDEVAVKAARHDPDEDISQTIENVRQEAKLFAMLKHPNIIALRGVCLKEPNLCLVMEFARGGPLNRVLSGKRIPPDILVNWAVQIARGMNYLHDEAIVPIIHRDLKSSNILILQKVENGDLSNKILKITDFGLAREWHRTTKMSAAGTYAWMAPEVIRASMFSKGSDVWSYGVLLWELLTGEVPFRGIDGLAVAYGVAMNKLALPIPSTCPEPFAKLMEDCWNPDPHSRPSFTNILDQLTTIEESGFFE
Sequence of GRK4 (P32298 whole entry): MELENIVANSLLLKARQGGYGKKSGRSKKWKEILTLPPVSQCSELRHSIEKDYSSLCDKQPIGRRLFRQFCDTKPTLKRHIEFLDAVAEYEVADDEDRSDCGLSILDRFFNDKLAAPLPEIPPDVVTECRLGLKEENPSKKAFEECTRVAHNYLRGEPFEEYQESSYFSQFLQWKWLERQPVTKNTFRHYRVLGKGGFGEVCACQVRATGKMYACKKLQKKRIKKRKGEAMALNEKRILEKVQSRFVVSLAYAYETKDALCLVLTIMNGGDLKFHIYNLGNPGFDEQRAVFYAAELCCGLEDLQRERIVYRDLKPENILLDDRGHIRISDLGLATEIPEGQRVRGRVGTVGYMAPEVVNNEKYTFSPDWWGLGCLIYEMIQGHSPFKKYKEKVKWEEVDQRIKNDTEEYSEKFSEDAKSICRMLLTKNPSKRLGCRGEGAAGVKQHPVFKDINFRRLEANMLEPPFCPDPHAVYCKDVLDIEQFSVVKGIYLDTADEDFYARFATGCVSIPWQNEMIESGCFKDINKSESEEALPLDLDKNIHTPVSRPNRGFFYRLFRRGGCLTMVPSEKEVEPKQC
Sequence of MAP4K4 (HGK) (O95819 1-328 limits assumed): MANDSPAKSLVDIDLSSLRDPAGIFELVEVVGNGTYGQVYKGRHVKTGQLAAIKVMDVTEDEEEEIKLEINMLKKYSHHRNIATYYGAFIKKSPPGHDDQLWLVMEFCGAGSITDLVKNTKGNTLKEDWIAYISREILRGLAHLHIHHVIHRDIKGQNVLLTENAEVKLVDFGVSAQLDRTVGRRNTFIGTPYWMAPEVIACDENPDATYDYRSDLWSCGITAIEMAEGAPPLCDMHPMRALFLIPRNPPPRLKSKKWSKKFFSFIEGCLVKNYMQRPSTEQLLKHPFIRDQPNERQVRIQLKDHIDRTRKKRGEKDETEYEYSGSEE
Sequence of SRMS (Srm) (Q9H3Y6 whole entry): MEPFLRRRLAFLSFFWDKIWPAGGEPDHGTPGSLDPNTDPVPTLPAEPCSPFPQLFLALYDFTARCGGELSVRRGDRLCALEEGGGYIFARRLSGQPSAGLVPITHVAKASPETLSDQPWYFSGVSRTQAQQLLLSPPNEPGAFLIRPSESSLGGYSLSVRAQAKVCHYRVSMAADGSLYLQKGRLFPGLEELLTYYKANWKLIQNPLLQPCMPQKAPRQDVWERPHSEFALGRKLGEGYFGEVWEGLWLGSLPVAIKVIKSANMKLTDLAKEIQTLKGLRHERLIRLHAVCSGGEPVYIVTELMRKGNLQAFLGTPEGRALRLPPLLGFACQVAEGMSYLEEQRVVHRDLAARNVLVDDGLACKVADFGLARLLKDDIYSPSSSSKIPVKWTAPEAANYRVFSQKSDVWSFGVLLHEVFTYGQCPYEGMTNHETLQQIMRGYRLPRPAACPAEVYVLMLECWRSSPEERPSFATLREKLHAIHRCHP

For SGRPPMIVWFNRPFLIAVSHTHGQTILFMAKVINPVGA [D3 peptide], the “% Inhibition mean” value in experiment [1] came out at 93.1%; with PRKCA (PKC alpha), 45.1%; in experiment [2], 100%; with MST4 it was 101%; in the experiment with PIM2, 89.9%; in the experiment with MAP4K4 (HGK), 100%. Also, the “% Inhibition mean” value in the experiment with GRK5 is 50.8%; with SRMS (Srm), 46.5%; in experiment [3], 105%; in the experiment with PRKCI (PKC iota), 48.9%; in experiment [4], 97%; with CHEK2 (CHK2), 62.1%. The “% Inhibition mean” value worked out at 92.9% in experiment [5], 84% in experiment [6], 101% in experiment [7] and 58.6% in the experiment with GRK4.
